From paper PMC3416812

Legend:
[1] = biological target: tubulin polymers from porcine brain tubulin fixed with glutaraldehyde (MTs (GA) or zinc-sheets (GA)) (porcine (purified from porcine brain)) (UniProt P02550)
[2] = biological target: tubulin purified from porcine brain, polymerised without fixation (MTs, zinc-sheets or zinc-macrotubes) (porcine (purified from porcine brain)) (UniProt P02550)
[3] = biological target: tubulin polymers from porcine brain tubulin fixed with glutaraldehyde (MTs (GA) or zinc-sheets (GA)) (porcine (purified from porcine brain)) (UniProt P02550); remark: listed apart in the source

recombinant yeast dynein dimer GFP-GST-Dyn1_(331kDa) (domain or fragment)
velocity of single-molecule movement on MTs (GA) (TIRF, from MSD plots; pH 6.8, 25 mM potassium acetate, 1 mM ATP) [1]: 35 nm/s
velocity of single-molecule movement on zinc-sheets (GA) (TIRF, from MSD plots; pH 6.8, 25 mM potassium acetate, 1 mM ATP) [1]: 35 nm/s
velocity of single-molecule movement on MTs (TIRF, from MSD plots; pH 6.8, 25 mM potassium acetate, 1 mM ATP) [2]: 36 nm/s
observed walking length on zinc-sheets (GA) (TIRF) [3]: 500 nm

rat kinesin dimer (RK430) fused with GFP (domain or fragment)
observed walking length on zinc-sheets (GA) (TIRF) [3]: 500 nm
